Results taken from PMC4078746.

Target: Slit D2 (the Robo-binding domain of Slit) (Drosophila)
Assay: SPR

| Kd | Substance |
| --- | --- |
| 235 nM | Robo1 Ig1-5 fragment (Ig domain-containing portion of the Robo ectodomain) (domain or fragment) |
| 1100 nM | Robo2 Ig1-5 fragment (Ig domain-containing portion of the Robo2 ectodomain) (domain or fragment) |
